Test results from patent US20050048634.

Target: oligo-nucleosomes purified from HeLa cells or chicken blood cells

Protein	HMTase activity in the presence of increasing concentrations (1.5, 15, 150 uM) of the competitor peptide C-RS10 (SEQ ID NO:20)
hDOT1L(1-416) (protein) MGEKLELRLKSPVGAEPAVYPWPLPVYDKHHDAAHEIIETIRWVCEEIPDLKLAMENYVLIDYDTKSFESMQRLCDKYNRAIDSIHQLWKGTTQPMKLNTRPSTGLLRHILQQVYNHSVTDPEKLNNYEPFSPEVYGETSFDLVAQMIDEIKMTDDDLFVDLGSGVGQVVLQVAAATNCKHHYGVEKADIPAKYAETMDREFRKWMKWYGKKHAEYTLERGDFLSEEWRERIANTSVIFVNNFAFGPEVDHQLKERFANMKEGGRIVSSKPFAPLNFRINSRNLSDIGTIMRVVELSPLKGSVSWTGKPVSYYLHTIDRTILENYFSSLKNPKLREEQEAARRRQQRESKSNAATPTKGPEGKVAGPADAPMDSGAEEEKAGAATVKKPSPSKARKKKLNKKGRKMAGRKRGRPKK	effectively competed with increasing concentrations of the peptide
hDOT1L(1-416) Δ(376-390) (protein) MGEKLELRLKSPVGAEPAVYPWPLPVYDKHHDAAHEIIETIRWVCEEIPDLKLAMENYVLIDYDTKSFESMQRLCDKYNRAIDSIHQLWKGTTQPMKLNTRPSTGLLRHILQQVYNHSVTDPEKLNNYEPFSPEVYGETSFDLVAQMIDEIKMTDDDLFVDLGSGVGQVVLQVAAATNCKHHYGVEKADIPAKYAETMDREFRKWMKWYGKKHAEYTLERGDFLSEEWRERIANTSVIFVNNFAFGPEVDHQLKERFANMKEGGRIVSSKPFAPLNFRINSRNLSDIGTIMRVVELSPLKGSVSWTGKPVSYYLHTIDRTILENYFSSLKNPKLREEQEAARRRQQRESKSNAATPTKGPEGKVAGPADAPMDSGPSKARKKKLNKKGRKMAGRKRGRPKK	effectively competed with increasing concentrations of the peptide
